assay: soluble on expression in E. coli; label from the status in PepcDB or PDB records

Sequence	soluble on expression in E. coli
MEHDERTHVPVELRAAGVVLLNERGDILLVQEKGIPGHPEKAGLWHIPSGAVEDGENPQDAAVREACEETGLRVRPVKFLGAYLGRFPDGVLILRHVWLAEPEPGQTLAPAFTDEIAEASFVSREDFAQLYAAGQIRMYQTKLFYADALREKGFPALPV	soluble
MEHITLFTDILPEEQERMRICFHAREMTFRNGETIMEYSSSMKKIGLILYGRAILYCCDTEGNQYLIDEFNKDAVFGEPFLLPADSQHYYVCAAEETKIMFIDYEHVIKRCDQACYHHSQMVSNLLQLTAIQSRQQNERIYMLSRSSTRKKLMAYLNALSTEKHSKDLKLPMSYTALAQYLSVDRSAMTRELKNLEEEGIIKKSGKQIHII	not soluble
MEHLLAIALGPVQEFIATARRTRDLYAGSRLLSEAAARAAKALAREVGAKNLIFPAPEDEAGLERLAGAGIPNVLLVRVPEGKDPRGLGEQALGAARDYLRERAEEVLGPRRDLLFWREALAQVEDLLEGYYAYLPLEGDYPRARERLMALLAARKNTRDFAPVSWGSPAYKSSLDGARESVLRLPEKEADHLRVRLGLRPGEYLAGPDLLKRWWKAGHGFLSTTHMAALPFWEGVRRAGLEAVLKEALEELGGLVGEEARAEVRHPVLRDTPFGEWDVRLLYESRLEEFPSLAEDPGLLEKARDRLRALWRRLFPKVRVPPGAYYALLHADGDRMGETLDGLPSPEAHRRFSNALALGFAAQVKDIVEAHGGGLVYSGGDDVLALLPLHTALMAARALADRFREAMAPFGREGRAPSLSVGLAVVHHLEPLQDALDLARRAEKWAKEGEPKRNALCVAYSPRSGAERLVRGRWDENPPLTRRLLRYADLLRAGEVPSRAAYELLALVREAGEALSGEALVAEALRILGRKEMKRAYREELEAWLRTGEDVRRLAEELILARPFAEALDQAGVPVESREVWDAH	soluble
MEIALERIYGHRLALPQVGAALLFAQEAPPALLLVPEARLRRYRDLSAFGAKVYVNPGLEALEEKALFVLSYEEALSPFPEDPEAWRLLLEVGRAYPREALLSRLLKLGYARDEDYRVLGEVVELGEVRLEFFGDELERLVVRGEERRRHVLLPKPGKAEGFTSKKVLHFPGPVYLDTPALAPKALWPLLAGRPWVALGGGVELPPLELGARPLPPYRGSLKALEKDLARWLAEGKRVHLFVGHARTLEYLKRRLQAFSPLILDRFPGPKGRLALLPGDFEGGAEWGEWVLLTEALVFATGGVRARVRVGEGLSDPGALSPGDYLIHPEHGVGQYLGLETREVLGVKRDYLVLRYKGEGKLYLPVEQLPLLKRHPGTTDDPPELSSLGKNEWQRAKERARKDVEELAGRLLVLQAKRKATPGRAFPPLPEWDPLVEKGFPYELTPDQKRALEEVLRDLESPHPMDRLVSGDVGFGKTEVALRAAHRVVGHGAQVAFLGPTTLLAEQHGKTFRERFQGLPVRVAVLSRFTPPKEEEAILKGLAEGTVDIVIGTHRLLQEDVRFRDLGLLIVDEEHRFGVAQKERIRELKAEVDTLYLSATPIPRTLYSALVGLKDLSSIQTPPPGRKPIKTFLAPFDPLLVREAILFELERGGKVFYVHDRVASIEARRRFLENLVPEARIGVVHGQMPESLIEETMLLFAEGAYDVLLATTIIEAGLDVPEANTILIERADRLGLATLYQLRGRVGRREEEAYAYLFHPPRLTEAAEKRLAAIADLSDLGSGHLLAERDMEIRGVGNLLGPEQHGHIRALSLEVYTELLEEAIRKLKGEAKEERRHVTLDLALSARLPAEYVGSLEARSRYYSRFAEAKSLAELSRLVRELKERYGPLPEEAENFVALARLRLVAERKGVVSITEGLTHLEVVFPRYPLDYDARGLKGLPYRVELTQYPPGFRLEKKGLRPRDYPEALMEVLYLFADL	soluble
MEIEDGFYLIDDSNHDEDLDFSDFPWLDPDHPLFFPATQANNSKGSTRWDAVNKFSVENWYPHLRKHTFKSHFITLNYNDIHYLMGNIPPDYDSSKLESIFNKILSEFNNKEVFMRLSTRSPKDSKFLFEEASTIMSKDFVYWNENDNKHQQLVSFVASMLKAMKIKSGRKIIETIAQSPRVYNDLLALVSSSNQSDCTTNVILREWHDIRPDHEFRVFVSRRHRKESIVTAISQYFHFLYFDKSPADCFNFLDEEDKKAVIKKFENYVLKSVDPDVAKFLNFSSEQDDDESSDCIREYIVDLALIPVSQYHGEITDENIIEIGANTYVMVVIELNPFAPAATGSGLEHHHHHH	not soluble
MEIFEKIRSLRKNHNLSQEEIADKINLSVSGYRKIENGKSRINHKRLEQIAEALEVSPLDLIPNSWRHGSSVYQVGKNGFYGDSSRAIEIELLKQQIKQEQLIKAKDETIEDKNRLISRLEEMLKILNT	not soluble
MEIFLSDPISAECPCGPDLEYDPEYLLLFTRAAPREEAQYGDFVSTPENINWAELERDAHRLLMRSKDIRILVVLLRCRIQQAGARGLSEALTLLETLCSTYPDAIHPQLLATEDITAEDAAVARSNALAALLDHEGVMADIRGITLSNNAAMRLQVRDVERSLSALRPADALAPESVRQQLADLEARGTLPLDAFRQAAETTERLQRHARETLNDQAPDFSRLTQLLALLPGAVQSTTPEILPQPQAEQPENATIVHTEQMQAEQIALPVHIAEEISPMTGAEPRQIRDRNDALERLRVIRRWFEHSEPSSPTIPLLRQAERLVGKRVSEVINEIPVELLEKWDALE	not soluble
MEIQFLGTGAGVPAKHRNVTGIALKLLDERNAVWLFDCGEGTQLQILKSSIRPRKIEKIFITHLHGDHIFGLPGLLSSRSFQGGTEPLEIYGPVGIADFVKTSLRVSQSRLSYPLKFIELTKENDVIFKDKQFTVRCNILDHGITSFGYRIEEAAHEGELQVEKLQALGIPSGPLYGKLKRGETIVFDGQEINGQAFVGERKPGRIVTILGDTRKTKNSVTLARRADVLVHESTFNKHEAKMAKAYFHSTSQQAAEVAKEAQVKQLILTHISARYLTKEAYQLQEEAQEIFPNTKIVKDMDIIEIPFANEGGA	not soluble
MEISNVYVPPRSSSSNHARLMTDFSNIFQTKSKSIISGDVNAHHSAWHSEGSEDTRGRELAELIDLHPDLIIQNEQVHTRADTYSISSPDITICTADLATKCHWSTLYKLGSDHIPMKLKINQAATPKRPKRLVANFKKANWQLFRDHIESRINGYSGPMDAIPMEKFFNKVILEADKKAVPKGSIDPKLKVDPKPLRLLAKEIADRETRNPLDPEIPILTRELATKRAERKNSEWRKKAHDQNAKRKSDVSSFWKLIKGVTKGRQYKGPVAFGDGLPKTGATIANKMAKSLVEAGRTKISHDEELKWRKNVRRNKRISKIAPLQDRITSIELHNMAIKMSPSAAIGPDGIAQIHIRKLPMCGYSFLAYLYNVSLSTNIIPDKWKKANVIMIPKPKKDPAIASSYRPISLLSPIAKLLEKAILKRIKNSIESPAHQHGFKPEHSTTTAVIQVTNDIIGGLNMKNPPERAIMACLDLRAAFDKVPTKKLCNDLMEAQGIEPKIKLWLGNYLHKRLIRTSHDNHWSKWHTLLGGVPQGSVISPNLFTFYLKDMPTQQDTMLISYADDMSIIARDKKIEKAAEKVQLHIDEIAKYLKERGMSISAEKSTVTVFSCDPKEHKTKPDIYWMDDPIPVINAPKLLGITLNTMTGTKDHVGNAIKSMQNKTRVIKSMAGTSWGNDRETMLYTTQALIKPTALYGAPAWTSLLSDTNLEKLEIAYRSALRACVGLTKDTPTDHIYQECRVLPLKEEYKLATQQMYLAAIKSNTHPCRDLKAKGQLERTSKPPRIPPLKLSDSEKLRLDNIPGDKTETQKKNHTKLVADFIRNAPNNRILNKPPPRVNYRDERTLPKETRCELARLRCGHSLLVEKYKARLEERQIKKCLNCGDEEGDVQHLLSCLQTPVPLEELWTSPLTVAAALGLPTKTPFDPGGGH	not soluble
MEKDHSSLFYYDQYSKFSRSSQGCRSLNKFSRFNNFRTSACFFDASKPKSDVQPFKKIRYSSEHGCLTMSFDSPSSCPSTSFLCDLSQNLVRGNAHIPKFYTRDLISTIGSRDHYSVDLIPKFGENTSIMKDFKDWGTDLSLQM	not soluble
MEKDISRKIDLLNILIEEKRWFTLFELEKNLNCSSKTIRKDISIINDLLPKTIFIHSKKGKGVKLSLPQNQSISEAISNLLKKSLTFLAIQQLLEERSNTVTSLADKLYLPISSTNIVLKRVSKYIKKFGLSLEKKPLRIVGDEFQIILMFSERYLESYPDTEWPFTEYKEEMLIDYINYIEEKLEIVFYSNDKRRMAFIMTILFKRIKQGHKVKFSEWIIKETMESIYYKKIFEGKNVIKVNKNRSLNIEEQVLLVIMVKLSRYVSKDENNLKQEELVLYKEGESTTYTYVKNFISILEQELKIDLNNNEEFVYGMIEYCREAFHILKFIPILKAPEKDTCKYIKKHYEETFYLVKRAYNKWGAEMKLTDIPDEEIAKVTMRIVAIGKQHNINRKKVLLITGEGKSWEEYMKSRINKRYGDQLKFVGGHAKILNGNTDNIDNIDIDFIITTVPLNFSWKSIVYVSPILQERDFYEIGIFASK	not soluble
MEKDLQLRVNEKLDVENILKDLDKYTPKRRGWTWRQPAENLQMGPFIYKDASTPLENSVALPSAKYFGDIDPQPLPVITTEIASGRFEDDIRRMRMAAWHGADHIMVIRTAGQSHYDGLIEGTPQGIGGVPITRKQVRAQRKALDLIEEEVGRPINYHSYVSGVAGPDIAVMFAEEGVNGAHQDPQYNVLYRNINMIRSFIDACESKTIMAWADMAQIDGAHNANATAREAWKVMPELMVQHALNSIFSLKVGMKKSNICLSTVPPTAPPAPSMYLDLPYAVALREMFEGYRMRAQMNTKYMEASTREATVTHVLNLLISKLTRADIQSTITPDEGRNVPWHIYNIEACDTAKQALIGMDGLMDMVQLKREGVLGDTVRELKERAVLFMEEIIEAGGYFNAVEQGFFVDSGYYPERNGDGIARQINGGIGAGTVFERDEDYMAPVTAHFGYNNVKQYDEALVSEPSKLIDGCTLEVPEKIVYIDELDENDNVNVRMEETKEFRHSSMIKPEVEWQADGTVLLTMFLPTSKRVAEFAAIEFAKKMNLEEVEVINREVMQEAEGTRIELKGRVPFSIDINSLVIPPEPEILSEDEIREDIEKTPLKIVAATVGEDEHSVGLREVIDIKHGGIEKYGVEVHYLGTSVPVEKLVDAAIELKADAILASTIISHDDIHYKNMKRIHELAVEKGIRDKIMIGCGGTQVTPEVAVKQGVDAGFGRGSKGIHVATFLVKKRREMREGKSEDPNSSSVDKLAAALEHHHHHH	soluble
MEKEGFARLFHNFDNVIEPKLCSTSGSVPSYLKGTMLRNGPGMFEIGDTKYQHWFDGMGFIQRYHFEDGKMYYSARYLESENYKKNMEAQRIVTGSFGTASFPDPCKSIFSRFFSSFVQSEGIHDNANVAFAPVGDGLYACTETPNMHRVDLDSLDTLEPVDFSKYVALHTCTAHQLFDENGDVYNIGSRFGPDAAHVFTVTKNPKNLQSDSDRSWEHTTKIGEIRCSETFYPTYMHSFGMSENYLIMFESPIRIDIKKFIMKRFITTTFRDCMKWHADKDVKIFILNKKTGEQVPLKLKMAPFFTFHHANTFERDGCLVVDYCRIEQAGNFDALLIENMKTGNFQNDALFLPYLTRVIIPLSIPDGAQPGDDLLKPLGWAKGCSAIFQDDGKIRLKEKRVCDISMEFPRYHWEKINMKPYNYVYGSSVLGAQKSETLPGIVKADLENGDHKVWRRENDKQICGEPIFVPNPEGVREDDGILIVPVMTISDGQRPFVLILEAKNLTEIARYTIPEARIPLGFHAFYQGRT	not soluble
MEKIIEVNSVSKTFKHKKAVNNVSFHVNKGEIVALLGPNGAGKTTTMSMMLGLKDPTEGTVSIFGKNPKHRDVRNSLGAMLQEVSVIDSITVEEAIELFRSYYTNPVAKETLLQLSNLELERKQRCEKLSGGQKRRLNFALALAGNPDLLFLDEPTVGMDITSRRTFWETIRKLVSEGKTIILTTHYLEEADALADRILLFVNGKIIADGTPDEMKATISRKTISFYSKESIPAKLLKELPNVTEVQAKEGHFTLTTEDTDATLKAIYQKNLPVTDVSVERGSLDEAFEQFVANQKEEIA	not soluble

Reference: the DeepSol protein solubility set
